Patent US20190321478A1 (published 2019)

Key:
[1] = target: T1, MAGEA1 (peptide MAGEA1-003) peptide on HLA-A*02:01 (human); assay: multimer staining
T1 peptide: KVLEYVIKV

[2] = target: T2, TBC1D9 (peptide code TBC1D9-002) peptide on HLA-A*02:01 (human); assay: cytokine release
T2 peptide: LLLPDVIKV

[3] = target: T3, PTRF (peptide code PTRF-001) peptide on HLA-A*02:01 (human); assay: cytokine release
T3 peptide: KLLEKVRKV

[4] = target: T4, EPAS (peptide code EPAS-001) peptide on HLA-A*02:01 (human); assay: cytokine release
T4 peptide: KALEGFIAV

[5] = target: T5, KIAA103 (peptide code KIAA103-002) peptide on HLA-A*02:01 (human); assay: cytokine release
T5 peptide: KVLNKVITV

[6] = target: T6, TMEM175 (peptide code TMEM175-001) peptide on HLA-A*02:01 (human); assay: cytokine release
T6 peptide: ILLPYVSKV

[7] = target: T7, RASAL2 (peptide code RASAL2-002) peptide on HLA-A*02:01 (human); assay: cytokine release
T7 peptide: SVLEPVISV

[8] = target: T8, NSD1 (peptide code NSD1-001) peptide on HLA-A*02:01 (human); assay: cytokine release
T8 peptide: KVQEQVHKV

[9] = target: T9, TMTC4 (peptide code TMTC4-001) peptide on HLA-A*02:01 (human); assay: cytokine release
T9 peptide: NVLEIVQKV

[10] = target: T10, GALNTL4 (peptide code GALNTL4-001) peptide on HLA-A*02:01 (human); assay: cytokine release
T10 peptide: KLTEYVDKV

[11] = target: T11, PSME2 (peptide code PSME2-001) peptide on HLA-A*02:01 (human); assay: cytokine release
T11 peptide: KVLERVNAV

Binder | binding result [1] | binding result [2] | binding result [3] | binding result [4] | binding result [5] | binding result [6] | binding result [7] | binding result [8] | binding result [9] | binding result [10] | binding result [11]
R26P1A9 (TCR, V domains shown) Valpha: SQQGEEDPQALSIQEGENATMNCSYKTSINNLQWYRQNSGRGLVHLILIRSNEREKHSGRLRVTLDTSKKSSSLLITASRAADTASYFCLIGASGSRLTFGEGTQLTVNP Vbeta: DAGVIQSPRHEVTEMGQEVTLRCKPISGHDYLFWYRQTMMRGLELLIYFNNNVPIDDSGMPEDRFSAKMPNASFSTLKIQPSEPRDSAVYFCASSYFGWNEKLFFGSGTQLSVL | recognises | no recognition | no recognition | no recognition | no recognition | no recognition | no recognition | no recognition | no recognition | no recognition | no recognition
R26P2A6 (TCR, V domains shown) Valpha: QKEVEQDPGPLSVPEGAIVSLNCTYSNSAFQYFMWYRQYSRKGPELLMYTYSSGNKEDGRFTAQVDKSSKYISLFIRDSQPSDSATYLCAMSDVSGGYNKLIFGAGTRLAVHP Vbeta: EAQVTQNPRYLITVTGKKLTVTCSQNMNHEYMSWYRQDPGLGLRQIYYSMNVEVTDKGDVPEGYKVSRKEKRNFPLILESPSPNQTSLYFCASTTPDGTDEQFFGPGTRLTVL | recognises | no recognition | no recognition | no recognition | no recognition | no recognition | no recognition | no recognition | no recognition | no recognition | no recognition
R26P3H1 (TCR, V domains shown) Valpha: AQSVAQPEDQVNVAEGNPLTVKCTYSVSGNPYLFWYVQYPNRGLQFLLKYITGDNLVKGSYGFEAEFNKSQTSFHLKKPSALVSDSALYFCAVRDMNRDDKIIFGKGTRLHILP Vbeta: DGGITQSPKYLFRKEGQNVTLSCEQNLNHDAMYWYRQDPGQGLRLIYYSQIVNDFQKGDIAEGYSVSREKKESFPLTVTSAQKNPTAFYLCASSRAEGGEQYFGPGTRLTVT | recognises | no recognition | no recognition | no recognition | no recognition | no recognition | no recognition | no recognition | no recognition | no recognition | no recognition
R37P1H1 (TCR, V domains shown) Valpha: AQTVTQSQPEMSVQEAETVTLSCTYDTSESNYYLFWYKQPPSRQMILVIRQEAYKQQNATENRFSVNFQKAAKSFSLKISDSQLGDTAMYFCAFGYSGGGADGLTFGKGTHLIIQP Vbeta: DAGVTQSPTHLIKTRGQQVTLRCSPKSGHDTVSWYQQALGQGPQFIFQYYEEEERQRGNFPDRFSGHQFPNYSSELNVNALLLGDSALYLCASSNEGQGWEAEAFFGQGTRLTVV | recognises | no recognition | no recognition | no recognition | no recognition | no recognition | no recognition | no recognition | no recognition | no recognition | no recognition
R42P3A9 (TCR, V domains shown) Valpha: GIQVEQSPPDLILQEGANSTLRCNFSDSVNNLQWFHQNPWGQLINLFYIPSGTKQNGRLSATTVATERYSLLYISSSQTTDSGVYFCAVHNFNKFYFGSGTKLNVKP Vbeta: AAGVIQSPRHLIKEKRETATLKCYPIPRHDTVYWYQQGPGQDPQFLISFYEKMQSDKGSIPDRFSAQQFSDYHSELNMSSLELGDSALYFCASSLLGQGYNEQFFGPGTRLTVL | recognises | no recognition | no recognition | no recognition | no recognition | no recognition | no recognition | no recognition | no recognition | no recognition | no recognition
R59P2E7 (TCR, V domains shown) Valpha: KQEVTQIPAALSVPEGENLVLNCSFTDSAIYNLQWFRQDPGKGLTSLLLIQSSQREQTSGRLNASLDKSSGRSTLYIAASQPGDSATYLCAVNSDYKLSFGAGTTVTVRA Vbeta: AAGVIQSPRHLIKEKRETATLKCYPIPRHDTVYWYQQGPGQDPQFLISFYEKMQSDKGSIPDRFSAQQFSDYHSELNMSSLELGDSALYFCASSLGLGTGDYGYTFGSGTRLTVV | recognises | no recognition | no recognition | no recognition | no recognition | no recognition | no recognition | no recognition | no recognition | no recognition | no recognition
